The assay deals with mouse synaptosomes (synaptosome preparation carrying the BoNT/A acceptor complex).

As for “active botulinum neurotoxin type A (BoNT/A) (from UniProt P0DPI1 2-1296)”, the percent inhibition (maximum at plateau) was 78%.

The values are drawn from patent US20080171347A1.
